Measurements published in publication PMC3632103.
Changes are numbered by the printed parent chain. Like-named read-outs stand apart in the source and are kept apart here.

T1: D2 helicase WT (His-MBP fusion) (Bacteriophage T5, UniProt Q6QGH9 1-928)
T1 sequence: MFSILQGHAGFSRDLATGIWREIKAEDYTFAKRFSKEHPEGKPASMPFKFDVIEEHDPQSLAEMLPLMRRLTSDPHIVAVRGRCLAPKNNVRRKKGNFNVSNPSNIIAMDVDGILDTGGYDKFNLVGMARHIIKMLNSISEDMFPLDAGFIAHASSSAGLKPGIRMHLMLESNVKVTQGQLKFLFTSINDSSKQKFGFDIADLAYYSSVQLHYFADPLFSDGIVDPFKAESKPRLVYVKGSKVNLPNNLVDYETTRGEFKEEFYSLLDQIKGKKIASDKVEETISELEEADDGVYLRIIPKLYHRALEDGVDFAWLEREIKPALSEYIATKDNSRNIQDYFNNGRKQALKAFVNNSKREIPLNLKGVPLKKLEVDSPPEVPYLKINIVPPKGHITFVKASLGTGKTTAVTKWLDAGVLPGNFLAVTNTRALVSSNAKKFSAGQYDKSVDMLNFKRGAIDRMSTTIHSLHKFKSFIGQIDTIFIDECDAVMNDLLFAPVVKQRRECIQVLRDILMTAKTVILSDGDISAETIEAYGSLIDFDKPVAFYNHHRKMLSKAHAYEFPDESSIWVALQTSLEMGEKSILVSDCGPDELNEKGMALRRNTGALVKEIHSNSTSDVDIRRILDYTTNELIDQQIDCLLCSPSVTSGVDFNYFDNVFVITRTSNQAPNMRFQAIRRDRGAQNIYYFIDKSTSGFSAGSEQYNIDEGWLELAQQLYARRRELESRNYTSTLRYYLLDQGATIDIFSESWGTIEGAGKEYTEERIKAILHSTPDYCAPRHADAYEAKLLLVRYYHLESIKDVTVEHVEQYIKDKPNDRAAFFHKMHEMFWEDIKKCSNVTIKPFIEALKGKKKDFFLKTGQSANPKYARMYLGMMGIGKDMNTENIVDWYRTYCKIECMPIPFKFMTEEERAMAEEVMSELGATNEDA

T2: D2 helicase K405E (His-MBP fusion) (Bacteriophage T5, UniProt Q6QGH9 1-928, K405E)
T2 sequence: T1 sequence with K405E

B1: T55 (ssDNA)
DNA: TTTTTTTTTTTTTTTTTTTTTTTTTTTTTTTTTTTTTTTTTTTTTTTTTTTTTTT
B2: T35 (ssDNA)
DNA: TTTTTTTTTTTTTTTTTTTTTTTTTTTTTTTTTTT
B3: T25 (ssDNA)
DNA: TTTTTTTTTTTTTTTTTTTTTTTTT

Key:
Assay in all cases: EMSA
[1] = biological target: T1, D2 helicase WT (His-MBP fusion)
[2] = biological target: T2, D2 helicase K405E (His-MBP fusion)
[3] = biological target: T1, D2 helicase WT (His-MBP fusion); remark: listed apart in the source

| Binder | binding result [1] | binding result [2] | binding result [3] |
| --- | --- | --- | --- |
| B1 | binds | – | – |
| B2 | binds | – | – |
| B3 | – | binds | binds |
